The source of these data is patent US10480012B2, “CYP-P22 biocatalytic nanoparticles with cytochrome P450 activity for prodrug activation” (UNIVERSIDAD NACIONAL AUTÓNOMA DE MÉXICO, priority 2015, dated 2019).

Series [1] can be described thus: Kinetic parameters of encapsulated and free CYP with 2,6-DMP and H2O2. The class given is biochemical. The method, then: To calculate the kinetic parameters using 2,6-DMP as a substrate, two curves were constructed with two different concentrations of hydrogen peroxide, 5 mM and 60 mM. Reactions were carried out in 0.1 mL (50 mM Tris-HCl pH 8) with the following phenol concentrations: 10, 25, 50, 125, 250 and 500 μM. The reaction was started by adding 5 mM or 60 mM of H2O2. The amount of encapsulated enzyme used was 42.9 picomoles (assays with 5 mM H2O2) and 21.45 picomoles (assays with 60 mM H2O2); the amount of protein was determined by a concentration assay, specific for CYP450, for binding to CO. The catalytic activity was spectrophotometrically monitored at 468 nm (ε468=14800 M^−1 cm^−1 using an Agilent 8453 UV-vis spectrophotometer. Catalytic constants were obtained through the GraphPad Prism 6 program.
H) Catalytic capacity of P22 capsids with CYP inside is evaluated. Reactions were carried out in 0.1 mL (50 mM Tris-HCl pH 8) with the following phenol concentrations: 10, 25, 50, 125, 250 and 500 μM. The reaction was started by adding 5 mM or 60 mM of H2O2. The amount of encapsulated enzyme used was 42.9 picomoles, the amount of protein was determined by a CO binding assay specific for CYP450. Catalytic activity was spectrophotometrically monitored at 468 nm (ε468=14800 M^−1 cm^−1). […] The encapsulated enzyme follows a Michaelis-Menten kinetics as does free CYP.

In series [2] the test system is trypsin. Nature of the series: Stability to protease degradation (trypsin), residual activity. Format: physicochemical. The conditions noted are these: 10 U trypsin per mg protein, room temperature. The method, then: For proteolysis assays, the encapsulated and free enzyme was treated with 10 U of trypsin per mg protein, incubating for 1 and 20 h at room temperature. At the end of each time, an aliquot was taken out of the sample and the residual activity was measured in 100 mM Tris-HCl buffer pH 8 using 500 μM 2,6-DMP as substrate and initiating the reaction with 5 mM H2O2.

Series [3] is described as follows: Temperature stability, activity retention at 40 and 50° C. The class given is physicochemical. The method, then:
Stability of encapsulated CYP and the free enzyme was determined by measuring the percentage of activity retention at different times when the protein was incubated at 40 and 50° C. in a water bath. Incubation times for each of the temperatures were 0, 5, 10, 15 and 30 min. At the end of each time, an aliquot was removed from the sample, centrifuged for 1 min at 16,000×g and left to rest for 10 min to temper the sample before measuring activity. Catalytic activity was measured in a final volume of 0.1 mL in 100 mM Tris-HCl buffer pH 8 using 500 μM 2,6-DMP as substrate and initiating the reaction with 5 mM H2O2.

The nature of series [4]: pH activity profile. The class given is biochemical. The conditions noted are these: 500 μM 2,6-DMP, 5 mM H2O2. The method, then:
To determine the activity profile at different pH values for the encapsulated and free enzyme, catalytic activity was measured at the following pHs: 5 (100 mM sodium acetate), 6 (100 mM potassium phosphate}, 7, 8 and 9 (100 mM Tris-HCl), 10 (100 mM borates). Catalytic activity was measured in a final volume of 0.1 mL using as substrate 500 μM 2,6-DMP and initiating the reaction with 5 mM H2O2.

Series [5] deals with human MCF7 breast cancer cells. As to the kind of experiment: CYP activity in tumor cells treated with nanoparticles (BFC fluorescence assay). Format: cell-based. The conditions noted are these: 100 μM BFC, fluorescence images. The method, then:
I) The presence of biocatalytic nanoparticles (loaded nanoparticles) with CYP activity is evaluated in transformation of 7-benzyloxy-4-trifluorometyl-coumarin (BFC) monitored by fluorescence according to the method of Donato et al.. The fluorescence assay for determining CYP activity is performed with a direct incubation of cultured tumor cells in a 12-well plate in the presence of BFC 100 μM. […] After 60 min incubation at 37° C. the incubation medium is removed and the conjugated products of CYP transformation will be hydrolyzed with a mixture of 3-giucoronidase/arylsulfatase for 2 hours at 37° C. Finally, samples are diluted with the corresponding solution and product fluorescence (7-hydroxy-4-trifluoromethylcoumarin, HFC) is quantified in a spectrofluorimeter with 410 nm excitation and 510 nm emission.
J) Affinity evaluation of functionalized loaded nanoparticles in tumor cells in vitro is carried out in human MCF7 breast cancer cells that are maintained in DMEM medium (Dulbecco's Modified Eagle's Medium) supplemented with 10% fetal bovine serum. […] The presence of biocatalytic nanoparticles (CYP-P22) with CYP activity is evaluated in the transformation of 7-benzyloxy-4-trifluoromethyl-coumarin (BFC) monitored by fluorescence according to the method of Donato et al.. […]

B1: CYP-P22: cytochrome P450 (CYPBM3 “21B3” fused to scaffold protein) encapsulated in a bacteriophage P22 nanocapsid (protein)
chain: MAIKEMPQPKTFGELKNLPLLNTDKPVQALMKIADELGEIFKFEAPGRVTRYLSSQRLVKEACDESRFDKNLSQALKFVRDFAGDGLATSWTHEKNWKKARNILLPSLSQQAMKGYHAMMVDIAVQLVQKWERLNSDEKIEVPEDVTRLTLDTIGLCGFNYRFNSFYRDQPHPFITSMVRALDEAMNKLQRANPDDPAYDENKRQFQEDIKVMDLVDKIIADRKASGEQSDDLLTHMLHGKDPETGEPLDDENIRYQIITFLIAGHETTSGLLTFALYFLVKNPHVLQKAAEEAARVLVDPVPSYKQVKQLKYVGMVLNEALRLWPTAPAFSLYAKEDTVLGGEYPLEKGDELMVLIPQLHRDKTIWGDDVEEFRPERFENPSAIPQHAFKPFGNGQRACIGQQFALHEATLVLGMMLKHFDFEDHTNYELDIEETLTLKPEGFVIKAKSKKIPLGGIPSPSTGSLVPRGSCRSNAVAEQGRKTQEFTQQSAQYVEAARKHYDAAEKLNIPDYQEKEDAFMQLVPPAVGADIMRLFPEKSAALMYHLGANPEKARQLLAMDGQSALIELTRLSERLTLKPRGKQISSAPHADQPITGDVSAANKDAIRKQMDAAASKGDVETYRKLKAKLKGIR
In the case of B1, the “catalytic activity using 2,6-DMP and H2O2 as substrates” value in series [1] was “catalytically active”. Besides, the kcat app in series [1] (substrate 2,6-DMP, 5 mM H2O2, 50 mM Tris-HCl pH 8) is given as 127.2 (±2.3) min^−1. Also, the “activity retained after incubation with trypsin” value in series [2] (1 hour) is given as 96%; in series [2] (20 hours), 38%. For the same molecule, the “stability compared with free enzyme” value in series [3] (40° C.) is “practically the same”. Moreover, the “inactivation compared with free CYP” value in series [3] (50° C.) is on record as “even faster than that found for free CYP”. Besides, in series [4], the “pH of optimum activity” value is “pH 8 and 9”. For the same molecule, the “cytochrome P450 activity in treated tumor cells versus endogenous activity in untreated cells” value in series [5] is recorded as “much greater”.
